The chains are these.
B1: 46C3 (antibody, V domains shown)
VH: EVQLQQSGAELVKPGASVKLSCTASDFNIIDTYIHWVKQRPEQGLEWIGRIDPANGNTKYDPKFQDKAALTSDTDSNTAYLLFNSLTSEDTAVYYCARGTSYSWFAYWGQGTLVSVSA
VL: AVLMTQTPLSLPVSLGDQASISCRSSQNIVHSDGNTYLEWYLQKPGQSPKLLIYKVSNRFSGVPDRFSGSGSGRDFTLKISRVEAGDLGVYYCFQGSHVLTFGAGTRLELK
notes: murine hybridoma-derived anti-KLB antibody
B2: 11F1 (antibody, V domains shown)
VH: EVQLVESGGGLVKPGGSLKLSCAPSGFTFSSYGISWVRQTPEKRLEWVATVSSGGRYTYYPDSVKGRFTISRDNAENTLYLQMSSLRSEDTAMYYCTRGGDGYALDYWGQGTSVTVSS
VL: DIQMTQTTSSLSASLGDRVTIICSASQVISNYLNWYQQKPDGTVKLLIYFTSSLRSGVPSRFSGSGSGTDYSLTISNLEPEDVATYFCQQYSKLPWTFGGGTKLELK
notes: as for B1
B3: 21H3 (antibody, V domains shown)
VH: QVQLQQPGAEIVKPGASVRLSCKASGYSFTSYWIHWVKQRPGQGLEWIGEIDPSVSNSNYNQKFKGKATLTADKSSSTAYMQLSGLTSEDSAVYFCVRLGVMVYGSSPFWFAYWGQGTLVTVSA
VL: DIVMTQSQKFMSTSVGDRVSITCKASQFVSDAVAWYQQKPGQSPKLLICSASYRYTGVPDRFTGSGSGTDFTFTISSVRTEDLAVYYCQQHYIVPYTFGGGTTLEIE
notes: as for B1
B4: 14E6 (antibody, V domains shown)
VH: EVPLQQSGPELVKPGATVKISCKPSGDTFTEYTMNWVRQSHGKSLEWIGGINPNNGETSYNQKFKGKATLTVDKSSSTAFMDLRILTSEDSAVYFCARKTTNYWGQGTTLIVSS
VL: DIQMTQSPSSLSASLGERVSLTCRASQEISGYLSWLQQKPDGTIKRLIYAASTLDSGVPRRFSGSRSGSDYSLTISSLESEDFADYYCLQYGSYPWTFGGGTKLELK
notes: as for B1
B5: 8C5 (antibody, V domains shown)
VH: QVQLKQSGPGLVQPSQSLSVACTVSDFSLTTYGVHWVRQSPGKGLEWLGVIWSGGSTDYNAAFISRLTISKDNSKSQVFFKMNSLQTTDTAIYYCARDYGSTYVDAIDYWGQGTSVTVSS
VL: DIVLTQSPTSLAVSLGQRATISCRASESVESYGNRYMTWYQQKPGQPPKLLIYRAANLQSGIPARFSGSGSRTDFTLTIDPVEADDVATYYCQQSNEDPWTFGGGTKVEIK
notes: murine hybridoma-derived anti-KLB antibody; also called KLBmAb1
B6: 8E1 (antibody, V domains shown)
VH: EVQLQQSGAELVKPGASVKLSCTAADFNIKDTYMHWVKQRPEQGLEWIGRIDPSNGNAKYDPKFQGKASITADSSSNTAYLHLSSLTSEDTAVYYCASRALGNGYALGYWGQGTSVTVSS
VL: DIQMTQSSSYLSVSLGGSVTITCKASDHINNWLAWYQQKPGNAPRLLIYGTTNLETGVPSRFSGSGSGRDYILSITSLQSEDVASYYCQQYWNTPFTFGSGTKLEIK
notes: as for B1

One assay has as its target T1, human KLB expressed on cells (human, UniProt Q86Z14 53-1044).
T1 construct: on transfected 293 / HEK293 cells; also called hKLB; beta-Klotho
Kind of assay: FACS on cells expressing hKLB, hKLA and chimeras; domain of hKLB recognized.
Consider B1, for which the binding result is given as “binds”.

As to B2, the binding result is given as “binds”.

On to B3, for which the binding result was “binds”. In the case of B4, the binding result is on record as “binds”.

Another assay deals with T2, hKLB-ECD-HIS protein (human, UniProt Q86Z14 53-996).
T2 construct: recombinant hKLB-ECD-HIS protein (R&D Systems); also called recombinant KLB-ECD protein; not shown: HIS tag
Description: ELISA on hKLB-ECD-HIS protein, chimeric IgG (murine variable, hIgG1 constant regions), OD450. From the text: In addition, some of the antibodies were ranked by ELISA. For these experiments, anti-KLB antibodies that were chimeric recombinant IgG with murine variable regions and hIgG1 constant regions were used to measure binding to hKLB-ECD-HIS protein.
A general note: An ELISA detects its analyte on a solid surface through an enzyme-linked reagent.
In the case of B5, the binding result is “binds”. As for B2, the binding result is “binds”. With B6, the binding result is listed as “binds”. As to B4, the binding result is listed as “binds”.

Source of the values: patent publication US20220064331A1 (Genentech, published 2022).
